Test [1] deals with T1, cynomolgus TfR overexpressed on CHO cells (cynomolgus monkey, UniProt Q5RDH6 1-760 (Pongo abelii entry)).
T1 construct: construct is TfR followed by an HA tag and IRES-GFP; also called cynomolgus monkey TfR1; NHP TfR
T1 chain: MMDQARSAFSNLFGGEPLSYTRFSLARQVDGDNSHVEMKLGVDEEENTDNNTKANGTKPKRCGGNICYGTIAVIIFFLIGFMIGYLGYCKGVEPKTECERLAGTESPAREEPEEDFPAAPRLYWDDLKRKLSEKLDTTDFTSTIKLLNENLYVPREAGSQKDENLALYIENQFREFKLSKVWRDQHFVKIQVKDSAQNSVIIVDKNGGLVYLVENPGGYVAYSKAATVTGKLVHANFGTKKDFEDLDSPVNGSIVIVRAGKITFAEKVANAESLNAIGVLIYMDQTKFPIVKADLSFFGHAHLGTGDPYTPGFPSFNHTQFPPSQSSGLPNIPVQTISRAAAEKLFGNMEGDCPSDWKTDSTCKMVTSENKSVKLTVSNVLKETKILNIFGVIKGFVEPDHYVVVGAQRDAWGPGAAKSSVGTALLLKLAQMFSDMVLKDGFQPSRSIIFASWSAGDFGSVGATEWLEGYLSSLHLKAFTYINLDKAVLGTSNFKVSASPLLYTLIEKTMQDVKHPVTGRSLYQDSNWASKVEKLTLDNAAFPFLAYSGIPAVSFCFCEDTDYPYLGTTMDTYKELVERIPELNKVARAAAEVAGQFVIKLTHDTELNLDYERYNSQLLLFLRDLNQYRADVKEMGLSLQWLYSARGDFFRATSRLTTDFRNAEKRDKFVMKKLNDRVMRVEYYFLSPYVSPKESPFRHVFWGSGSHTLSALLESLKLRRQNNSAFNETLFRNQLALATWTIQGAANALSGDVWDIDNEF
Put plainly: flow cytometry on CHO cells overexpressing cynomolgus TfR (CHO-cynoTfR), VHH detected with anti-FLAG-iFluor647; median Flag-i647 intensity in total GFP cells. The method, then:
Output libraries were screened with flow cytometry to find binders to human TfR overexpressing cells (FIG. 1A). […] Binding kinetics to recombinant human and cynomolgus TfR were further characterized with Surface Plasmon Resonance (SPR).
Periplasmic extracts diluted 1:10 in PBS 2% FBS, or a dilution range of different VHH or bispecific antibody concentrations prepared in PBS 2% FBS, were incubated with 0.1 million CHO cells overexpressing either the human, cynomolgus or mouse TfR for 30 min at 4° C. As control for background binding, periplasmic extracts, VHHs or bispecific antibodies were also incubated with 0.1 million CHO cells overexpressing GFP. Binding of VHHs was next resolved by a second step 30 min incubation at 4° C. with an anti-FLAG-iFluor647 antibody (A01811, Genscript) diluted 1:500 for screening and 1:250 for validation assays, or with anti-human IgG Fc-Alexa Fluor647 antibody (410714, BioLegend) diluted 1:200. […] Cells were fixed with 4% paraformaldehyde before being analyzed. Flp-In™-CHO™ cells used as unstained control and single stain controls were used to determine the cut-off point between background fluorescence and positive populations. […] The data was acquired with an Attune Nxt flow cytometer (Invitrogen) and analyzed by FCS Express 7 Research Edition.
On the technique in general: In flow cytometry, cells or beads pass a laser one at a time.

Test [2] concerns the target T2, recombinant cynomolgus TfR (90253-C07H, Sino Biological), biotinylated (cynomolgus monkey, UniProt Q5RDH6 89-760 (Pongo abelii entry), biotinylated with EZ-Link NHS-PEG4-Biotinylation Kit).
T2 construct: Bought protein; also called immobilized recombinant cynomolgus TfR
T2 chain: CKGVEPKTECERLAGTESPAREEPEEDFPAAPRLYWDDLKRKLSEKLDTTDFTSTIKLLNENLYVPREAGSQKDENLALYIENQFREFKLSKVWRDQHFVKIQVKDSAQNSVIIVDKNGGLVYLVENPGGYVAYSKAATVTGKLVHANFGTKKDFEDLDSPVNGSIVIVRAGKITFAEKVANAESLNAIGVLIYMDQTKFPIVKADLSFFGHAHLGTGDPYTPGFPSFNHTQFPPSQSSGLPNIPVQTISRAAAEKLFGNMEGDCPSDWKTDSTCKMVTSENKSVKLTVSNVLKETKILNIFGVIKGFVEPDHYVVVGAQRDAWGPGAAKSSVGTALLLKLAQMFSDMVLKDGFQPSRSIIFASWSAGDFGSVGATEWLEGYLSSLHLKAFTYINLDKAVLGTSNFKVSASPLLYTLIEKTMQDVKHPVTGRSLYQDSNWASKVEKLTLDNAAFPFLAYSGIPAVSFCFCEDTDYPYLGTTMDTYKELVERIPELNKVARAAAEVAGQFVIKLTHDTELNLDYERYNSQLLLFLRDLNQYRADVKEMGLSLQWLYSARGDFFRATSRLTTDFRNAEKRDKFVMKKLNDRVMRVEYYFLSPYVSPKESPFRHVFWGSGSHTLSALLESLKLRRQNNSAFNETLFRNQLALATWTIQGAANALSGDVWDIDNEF
The test is described as follows: SPR (Biacore T200), biotinylated cynomolgus TfR captured on SA chip, VHH as analyte, single cycle kinetics. The source says: Phage libraries generated after 4 biweekly immunizations of two different camelids, underwent two rounds of pannings on CHO cell lines overexpressing either cynomolgus TfR in the first round or human TfR in the second round. Output libraries were screened with flow cytometry to find binders to human TfR overexpressing cells (FIG. 1A). […] Binding kinetics to recombinant human and cynomolgus TfR were further characterized with Surface Plasmon Resonance (SPR).
Surface Plasmon Resonance (SPR) was used to measure the interaction between VHHs and human or cynomolgus TfR receptor. Human TfR (2474-TR, R&D Systems) and cynomolgus TfR (90253-C07H, Sino Biological) were biotinylated with the EZ-Link NHS-PEG4-Biotinylation Kit (ThermoFischer Scientific) according to the manufacturer instructions. The binding experiments were performed at 25° C. on a Biacore T200 instrument (Cytiva, Uppsala, Sweden) in HBS-EP+ buffer (10 mM HEPES, 150 mM NaCl, 3 mM EDTA and 0.05% v/v Surfactant P20). Biotinylated human TfR and cynomolgus TfR were captured on a SA sensor chip (Cytiva) at a density of around 250 RU. Increasing concentrations of VHHs were sequentially injected in one single cycle at a flow rate of 30 μl/min. The dissociation was monitored for 20 min. […] A reference flow was used as a control for non-specific binding and refractive index changes. Several buffer blanks were used for double referencing. […]
A general note: Surface plasmon resonance follows binding to a sensor surface in real time, without labels.

B1: BBB00515 (VHH)
VHH: QVQLQESGGGLVQAGGSLRLSCAASGSIFSINAMGWYRQAPGKQRELVAVITSGGSTIYADSVKGRFTISRDNAENTVYLQMNSLKPEDTAVYYCNAHVGLKVPTIQELSLGFGSWGQGTQVTVSS
notes: Lead VHH expressed in E. coli TG1 and purified by IMAC; detected with anti-FLAG antibody in flow cytometry; also called BBB00515 VHH; not shown: C-terminal 3xFlag/6xHis tag from expression vector pBDS119
In the case of B1, the concentration for a half-maximal effect (EC50 (read off the curve)) in test [1] was ~8 nM. For the same molecule, the Kd in test [2] is 63 nM.

B2: BBB00533 (VHH)
VHH: QVQLQESGGGSVQPGGSLRLSCTASGRTFNYAMGWFRQAPGKNREFVATIDWKDGSSYYLDSVRGRFTIERDDAKNTVYLQMNSLKPEDAAVYTCAVGDGDYCSTYTCAAEVEYDYWGQGTQVTVSS
notes: Lead VHH expressed in E. coli TG1 and purified by IMAC; detected with anti-FLAG antibody in flow cytometry; also called BBB00533 VHH; not shown: C-terminal 3xFlag/6xHis tag from expression vector pBDS119
With B2, the “EC50 (read off the curve)” value in test [1] was ~40 nM. Moreover, the Kd in test [2] came out at 104 nM.

In general, EC50 (read off the curve) refers to the midpoint of the concentration-response curve. One may read the Kd as the equilibrium constant for the complex coming apart.

(Values after patent publication US20260274981A1 (VIB VZW, published 2026).)
